Reference: patent US20260174875A1 (Novo Nordisk A/S, priority 2023, published 2026)
Numbered stars: 1 amine (or outer) side, 2 acyl side, 3 side chain; on linkers, the order of the positions; unused ones are H or OH. Square brackets hold non-standard residues; d marks the D form. Side chains are listed from the residue outwards. * marks the point of attachment. C20 diacid = O=C(O)CCCCCCCCCCCCCCCCCCC(=O)*; C18 diacid = O=C(O)CCCCCCCCCCCCCCCCC(=O)*; C16 diacid = O=C(O)CCCCCCCCCCCCCCC(=O)*; γGlu = O=C(O)[C@H](CCC(=O)[*:2])N[*:1]; Chem. 28 = not defined here; AEEA = NCCOCCOCC(=O)O; Aib = CC(C)(N)C(=O)O

T1: human GIP receptor (human, UniProt P48546 22-466)
T1 sequence (looked up): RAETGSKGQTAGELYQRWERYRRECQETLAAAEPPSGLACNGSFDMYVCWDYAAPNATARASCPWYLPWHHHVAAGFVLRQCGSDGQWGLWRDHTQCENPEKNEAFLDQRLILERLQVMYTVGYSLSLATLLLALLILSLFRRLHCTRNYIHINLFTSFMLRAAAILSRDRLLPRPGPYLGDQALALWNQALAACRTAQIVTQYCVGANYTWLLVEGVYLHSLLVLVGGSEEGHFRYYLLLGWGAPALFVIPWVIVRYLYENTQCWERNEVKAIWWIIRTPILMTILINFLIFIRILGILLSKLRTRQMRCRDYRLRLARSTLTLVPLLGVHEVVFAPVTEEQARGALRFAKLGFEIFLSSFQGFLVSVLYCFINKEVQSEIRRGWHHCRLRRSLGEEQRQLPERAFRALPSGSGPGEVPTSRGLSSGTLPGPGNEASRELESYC

T2: human amylin-3(a) receptor (human, UniProt P30988 25-474; O60896 24-148)
T2 sequence (looked up) 1: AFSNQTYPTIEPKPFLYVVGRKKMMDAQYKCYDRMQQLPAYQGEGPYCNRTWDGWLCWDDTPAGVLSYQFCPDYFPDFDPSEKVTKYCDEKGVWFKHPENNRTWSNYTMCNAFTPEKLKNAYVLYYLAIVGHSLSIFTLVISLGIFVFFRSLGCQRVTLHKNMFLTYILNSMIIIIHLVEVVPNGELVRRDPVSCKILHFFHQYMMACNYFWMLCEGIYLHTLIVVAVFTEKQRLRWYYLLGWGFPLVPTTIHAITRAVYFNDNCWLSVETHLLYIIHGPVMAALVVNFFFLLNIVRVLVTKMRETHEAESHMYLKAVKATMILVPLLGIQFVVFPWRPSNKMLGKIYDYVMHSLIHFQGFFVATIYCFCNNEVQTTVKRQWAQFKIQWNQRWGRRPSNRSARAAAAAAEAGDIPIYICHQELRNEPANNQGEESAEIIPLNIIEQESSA
T2 sequence (looked up) 2: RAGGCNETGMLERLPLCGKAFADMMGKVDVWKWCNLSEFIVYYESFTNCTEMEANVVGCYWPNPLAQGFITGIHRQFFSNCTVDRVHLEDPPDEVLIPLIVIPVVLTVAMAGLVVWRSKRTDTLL

B1: Compound 53 (peptide)
peptide: Y[Aib]EGTFTSDYSILLEEQAAREFIEWLLAGGPSSGAGQAPGQAPGASHLSTAALGRLSAELHK(Chem. 28)LATLPRTETGSGSP-NH2
modifications: reading uncertain
B2: Compound 58 (peptide)
peptide: Y[Aib]EGTFTSDYSILLEEQAAREFIEWLLAGGPSSGAGQAPGQAPLASHLSTAQTQRLSAELHK(Chem. 28)LATLPRTETGSGSP-NH2
modifications: reading uncertain
B3: Compound 62 (peptide)
peptide: H[Aib]HGTFTSDYSILLEEQAAREFIEWLLAGGPSK([AEEA-AEEA-γGlu-C16 diacid])GEASQLSTAALGRLSAELHRLADLPRTETGSGSP-NH2
B4: Compound 52 (peptide)
peptide: Y[Aib]EGTFTSDYSILLEEQAAREFIEWLLAGGPSSGAGQAPGQAPGASHLSTAQTQRLSAELHK(Chem. 28)LATLPRTETGSGSP-NH2
modifications: reading uncertain
B5: Compound 67 (peptide)
peptide: Y[Aib]EGTFTSDYSILLEEQAAREFIEWLLAGGPSRGEASELSTAALGRLSAELHK([AEEA-AEEA-γGlu-C18 diacid])LATLPRTETGSGSP-NH2
B6: Compound 60 (peptide)
peptide: Y[Aib]EGTFTSDYSILLEEQAAREFIEWLLAGGPSSGALAQTLAQTLASHLSTAQTQRLSAELHK([AEEA-AEEA-γGlu-C20 diacid])LATLPRTETGSGSP-NH2
B7: Compound 55 (peptide)
peptide: Y[Aib]EGTFTSDYSILLEEQAAREFIEWLLAGGPSSGAGQAPGQAPGASHLSTAQTQRLSAK(Chem. 28)LHRLATLPRTETGSGSP-NH2
modifications: reading uncertain
B8: Compound 61 (peptide)
peptide: H[Aib]HGTFTSDYSILLEEQAAREFIEWLLAGGPSK([AEEA-AEEA-γGlu-C16 diacid])GAPPPSGGGEASHLSTAQTARLSAELHRLADLPRTETGSGSP-NH2
B9: Compound 64 (peptide)
peptide: H[Aib]HGTFTSDYSILLEEQAAREFIEWLLAGGPSK([AEEA-AEEA-γGlu-C18 diacid])GEASQLSTAALGRLSAELHQLATLPRTETGSGSP-NH2
B10: Compound 56 (peptide)
peptide: Y[Aib]EGTFTSDYSILLEEQAAREFIEWLLAGGPSSGAGQAPGQAPGASHLSTAQTQRLSAELHRLK(Chem. 28)TLPRTETGSGSP-NH2
modifications: reading uncertain
B11: Compound 65 (peptide)
peptide: H[Aib]HGTFTSDYSILLEEQAAREFIEWLLAGGPSK([AEEA-AEEA-γGlu-C18 diacid])GEASQLSTAALGRLSAELHGLATLPRTETGSGSP-NH2
B12: Compound 68 (peptide)
peptide: Y[Aib]EGTFTSDYSILLEEQAAREFIEWLLAGGPSRGEASHLSTAQTQRLSAELHK([AEEA-AEEA-γGlu-C18 diacid])LATLPRTETGSGSP-NH2
B13: Compound 59 (peptide)
peptide: Y[Aib]EGTFTSDYSILLEEQAAREFIEWLLAGGPSSGALAQTLAQTLASHLSTAQTQRLSAELHK([AEEA-AEEA-γGlu-C16 diacid])LATLPRTETGSGSP-NH2
B14: Compound 57 (peptide)
peptide: Y[Aib]EGTFTSDYSILLEEQAAREFIEWLLAGGPSSGAGQAPGQAPGASHLSTAQTQRLSAELHRLATLPK(Chem. 28)TETGSGSP-NH2
modifications: reading uncertain
B15: Compound 51 (peptide)
peptide: H[Aib]HGTFTSDYSILLEEQAAREFIEWLLAGGPSSGALAQTLAQTLASHLSTAQTQRLSAELHK(Chem. 28)LATLPRTETGSGSP-NH2
modifications: reading uncertain
B16: Compound 69 (peptide)
peptide: H[Aib]HGTFTSDYSILLEEQAAREFIEWLLAGGPSRGEASHLSTAQTQRLSAELHK([AEEA-AEEA-γGlu-C18 diacid])LATLPRTETGSGSP-NH2
B17: Compound 63 (peptide)
peptide: H[Aib]HGTFTSDYSILLEEQAAREFIEWLLAGGPSK([AEEA-AEEA-γGlu-C18 diacid])GEASQLSTAALGRLSAELHTLATLPRTETGSGSP-NH2

target: T1, human GIP receptor; assay: cell-based or functional assay

Row | hGIPR Potency, no HSA, EC50 [pM] | Binder
1 | 3.25 | B1
2 | 1.88 | B2
3 | 2.26 | B3
4 | 1.83 | B4
5 | 4.28 | B5
6 | 6.06 | B6
7 | 3 | B7
8 | 1.3 | B8
9 | 2.03 | B9
10 | 2.65 | B10
11 | 1.89 | B11
12 | 1.83 | B12
13 | 7.72 | B13
14 | 1.98 | B14
15 | 8.37 | B15
16 | 1.9 | B16
17 | 1.6 | B17

target: T2, human amylin-3(a) receptor; assay: cell-based or functional assay

Row | hAMYR3 Potency, no HSA, EC50 [pM] | Binder
18 | 3.22 | B1
19 | 2.91 | B2
20 | 3.35 | B3
21 | 2.85 | B4
22 | 3.66 | B5
23 | 3.85 | B6
24 | 2.22 | B7
25 | 2.97 | B8
26 | 1.91 | B9
27 | 2.36 | B10
28 | 2.84 | B11
29 | 2.57 | B12
30 | 3.85 | B13
31 | 3 | B14
32 | 6.19 | B15
33 | 3.43 | B16
34 | 2.86 | B17

target: T3, human GLP-1 receptor (human, UniProt P43220 24-463); assay: cell-based or functional assay

Row | hGLP-1R Potency, no HSA, EC50 [pM] | Binder
35 | 23.3 | B1
36 | 12.7 | B2
37 | 4.13 | B3
38 | 11 | B4
39 | 15.4 | B5
40 | 94.4 | B6
41 | 23 | B7
42 | 2.79 | B8
43 | 3.71 | B9
44 | 18.2 | B10
45 | 4.86 | B11
46 | 12.1 | B12
47 | 50.6 | B13
48 | 12.8 | B14
49 | 7.68 | B15
50 | 3.45 | B16
51 | 4.77 | B17

target: T1, human GIP receptor; assay: cell-based or functional assay; remark: another data set of the same source

Row | hGIPR Potency, 1% HSA, EC50 [pM] | Binder
52 | 14.6 | B1
53 | 7.58 | B2
54 | 47.2 | B3
55 | 6.79 | B4
56 | 37 | B5
57 | 28.3 | B6
58 | 10.3 | B7
59 | 16 | B8
60 | 100 | B9
61 | 8.48 | B10
62 | 118 | B11
63 | 11.9 | B12
64 | 27.2 | B13
65 | 5.85 | B14
66 | 61.9 | B15
67 | 8.05 | B16
68 | 63.2 | B17

target: T2, human amylin-3(a) receptor; assay: cell-based or functional assay; remark: another data set of the same source

Row | hAMYR3 Potency, 1% HSA, EC50 [pM] | Binder
69 | 75.9 | B1
70 | 134 | B2
71 | 28.8 | B3
72 | 119 | B4
73 | 190 | B5
74 | 191 | B6
75 | 34 | B7
76 | 30.8 | B8
77 | 109 | B9
78 | 44.9 | B10
79 | 127 | B11
80 | 230 | B12
81 | 24.2 | B13
82 | 85 | B14
83 | 57.1 | B15
84 | 78.9 | B16
85 | 70.2 | B17

target: T3, human GLP-1 receptor; assay: cell-based or functional assay; remark: another data set of the same source

Row | hGLP-1R Potency, 1% HSA, EC50 [pM] | Binder
86 | 79.2 | B1
87 | 25.6 | B2
88 | 11.5 | B3
89 | 26.9 | B4
90 | 105 | B5
91 | 173 | B6
92 | 45.3 | B7
93 | 14.7 | B8
94 | 67.8 | B9
95 | 58.4 | B10
96 | 100 | B11
97 | 51.9 | B12
98 | 39.8 | B13
99 | 29.6 | B14
100 | 32.2 | B15
101 | 20.4 | B16
102 | 101 | B17
